Measurements taken from article PMC9517163.

Molecular target: minke whale ACE2, mFc-tagged (minke whale)
Assay: SPR

In the case of “SARS-CoV-2 Omicron BA.1 receptor-binding domain (RBD) (from UniProt P0DTC2) (domain or fragment)”, the Kd is reported as 254 nM.
